The results in this text go back to US20090291899A1 (published 2009).

The target in the assay is T1, recombinant human soluble TNF receptor inhibitor/Fc chimera (rHusTNFRI) (human, UniProt P19438 30-211).
T1 construct: Bought from Prospec-Tany TechnoGene; Only the soluble part stood in the assay; also called TNF-R1; immobilised rHusTNFRI; not shown: Fc part of human IgG1; 6x histidine tag on the Fc part
T1 sequence: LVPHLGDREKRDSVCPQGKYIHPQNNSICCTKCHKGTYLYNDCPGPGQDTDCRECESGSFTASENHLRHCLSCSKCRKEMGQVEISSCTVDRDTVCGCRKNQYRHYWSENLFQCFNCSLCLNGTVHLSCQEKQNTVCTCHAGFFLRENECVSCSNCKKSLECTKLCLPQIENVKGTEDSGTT
The assay can be described thus: solid-phase competition ELISA: unlabelled TNF70-80 against 10 µM biotinylated TNF70-80 on immobilised rHusTNFRI. For orientation: An ELISA detects its analyte on a solid surface through an enzyme-linked reagent.

Where no end group is shown, it is not given here.

B1: TNF70-80 (Pro-Ser-Thr-His-Val-Leu-Ile-Thr-His-Thr-Ile-OH) (peptide)
peptide: PSTHVLITHTI-OH
notes: 4; also called Peptide A; TNF mimetic peptide
The term IC50 denotes the concentration that gives 50% inhibition. In general, Kd refers to the constant that tells how readily two partners part at equilibrium. Regarding B1, the IC50 is around 21 µM and the Kd was found to be 90 µM.
